Nine molecules from patent publication US20160136299A1 (published 2016) can be followed below.

Where two headings read alike, the source gives them in different places.

For orientation: Kd means the concentration at which binding is half-saturated. As a reminder, the koff is the first-order rate constant of dissociation. Higher therefore signals fast dissociation.

The target in test [1] is CD-52 peptide 741. As to the kind of experiment: SPR. On the technique in general: SPR reads the build-up and loss of mass on a sensor chip optically.
Test [2] concerns the target CD-52 peptide 741. As to the kind of experiment: SPR. The source holds these as a separate data set.
The target of test [3] is SAM conjugate (~0.8 GalNAc) (S9). As to the kind of experiment: SPR; ~0.8 GalNAc.
For a further test, the target named is Control enzyme (S4). Description: SPR.
In test [4] the target is SAM conjugate (~8 gp) (S5). As to the kind of experiment: SPR; trivalent galactose glycopeptide conjugate.
Test [5] has as its target SAM conjugate (~1.6 GalNAc) (S10). As to the kind of experiment: SPR; ~1.6 GalNAc.

B1: A114N (antibody)
heavy: not shown
light: DIVMTQTPLSLSVTPGQPASISCKSSQSLLYSNGKTYLNWLLQKPGQSPQRLIYLVSKLDSGVPDRFSGSGSGTDFTLKISRVEAEDVGVYYCVQGTHLHTFGQGTRLEIKRTVAAPSVFIFPPSDEQLKSGTASVVCLLNNFYPREAKVQWKVDNALQSGNSQESVTEQDSKDSTYSLSSTLTLSKADYEKHKVYACEVTHQGLSSPVTKSFNRGEC
modifications: additional N-linked glycan at N114 (Kabat)
With B1, the Kd in the test with CD-52 peptide 741 [1] was determined as 2.4 nM.

B2: Y436T (antibody)
heavy: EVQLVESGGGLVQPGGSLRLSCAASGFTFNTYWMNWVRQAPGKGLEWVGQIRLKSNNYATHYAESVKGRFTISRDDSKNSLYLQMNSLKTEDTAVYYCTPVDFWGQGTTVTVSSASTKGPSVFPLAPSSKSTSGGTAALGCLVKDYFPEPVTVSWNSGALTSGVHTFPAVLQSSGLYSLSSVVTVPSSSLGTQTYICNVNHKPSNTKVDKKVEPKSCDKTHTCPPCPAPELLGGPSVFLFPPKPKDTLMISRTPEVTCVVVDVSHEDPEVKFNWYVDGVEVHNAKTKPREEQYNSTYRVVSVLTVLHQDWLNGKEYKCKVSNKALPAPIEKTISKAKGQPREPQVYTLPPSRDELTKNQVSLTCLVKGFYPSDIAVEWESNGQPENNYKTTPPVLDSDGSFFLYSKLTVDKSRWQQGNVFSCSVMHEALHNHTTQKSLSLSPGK
light: B1 light
For the molecule B2, in the test with CD-52 peptide 741 [2], binding was characterised by a dissociation constant (Kd) of 1.95 nM.

B3: Y436S (antibody)
heavy: not shown
light: B1 light
B3 gave an equilibrium dissociation constant (Kd) with CD-52 peptide 741 [2] of 1.73 nM.

B4: S440N (antibody)
heavy: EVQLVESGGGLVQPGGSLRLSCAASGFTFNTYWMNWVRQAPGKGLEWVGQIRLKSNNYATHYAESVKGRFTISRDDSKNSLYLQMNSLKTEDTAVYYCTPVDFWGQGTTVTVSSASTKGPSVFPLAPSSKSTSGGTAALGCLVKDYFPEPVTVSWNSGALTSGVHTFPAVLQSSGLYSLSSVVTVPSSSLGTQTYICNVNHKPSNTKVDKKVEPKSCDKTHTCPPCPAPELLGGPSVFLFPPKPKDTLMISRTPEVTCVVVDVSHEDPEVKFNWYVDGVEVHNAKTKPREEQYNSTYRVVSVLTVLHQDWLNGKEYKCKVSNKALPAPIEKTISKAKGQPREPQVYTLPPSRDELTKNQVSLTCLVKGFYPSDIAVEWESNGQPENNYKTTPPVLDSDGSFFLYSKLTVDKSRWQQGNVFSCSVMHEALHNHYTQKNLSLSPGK
light: B1 light
B4 showed a dissociation constant Kd with CD-52 peptide 741 [2] of 1.84 nM.

B5: WT 2C3 (antibody)
heavy: not shown
light: B1 light
On to B5, for which the values for the Kd with CD-52 peptide 741 [1] and with CD-52 peptide 741 [2] were 2.1 nM and 1.75 nM, respectively.

B6: NGT (antibody)
heavy: not shown
light: B1 light
With B6, in the test with CD-52 peptide 741 [2], the Kd came out at 1.35 nM.

B7: S442N (antibody)
heavy: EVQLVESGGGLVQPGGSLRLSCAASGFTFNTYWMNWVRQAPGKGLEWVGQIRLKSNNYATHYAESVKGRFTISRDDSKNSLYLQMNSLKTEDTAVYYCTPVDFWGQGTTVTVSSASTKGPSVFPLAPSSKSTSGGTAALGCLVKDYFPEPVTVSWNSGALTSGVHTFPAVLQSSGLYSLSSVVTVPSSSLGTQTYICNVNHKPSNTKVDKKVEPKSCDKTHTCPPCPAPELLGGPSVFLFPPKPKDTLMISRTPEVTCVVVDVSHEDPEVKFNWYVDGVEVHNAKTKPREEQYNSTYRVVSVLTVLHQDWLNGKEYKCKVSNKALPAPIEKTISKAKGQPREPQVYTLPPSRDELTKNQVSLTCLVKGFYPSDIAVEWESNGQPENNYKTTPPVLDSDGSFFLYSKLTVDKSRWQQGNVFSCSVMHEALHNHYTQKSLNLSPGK
light: B1 light
B7 had a dissociation constant (Kd) with CD-52 peptide 741 [2] of 1.85 nM.

B8: S298N/Y300S (antibody)
heavy: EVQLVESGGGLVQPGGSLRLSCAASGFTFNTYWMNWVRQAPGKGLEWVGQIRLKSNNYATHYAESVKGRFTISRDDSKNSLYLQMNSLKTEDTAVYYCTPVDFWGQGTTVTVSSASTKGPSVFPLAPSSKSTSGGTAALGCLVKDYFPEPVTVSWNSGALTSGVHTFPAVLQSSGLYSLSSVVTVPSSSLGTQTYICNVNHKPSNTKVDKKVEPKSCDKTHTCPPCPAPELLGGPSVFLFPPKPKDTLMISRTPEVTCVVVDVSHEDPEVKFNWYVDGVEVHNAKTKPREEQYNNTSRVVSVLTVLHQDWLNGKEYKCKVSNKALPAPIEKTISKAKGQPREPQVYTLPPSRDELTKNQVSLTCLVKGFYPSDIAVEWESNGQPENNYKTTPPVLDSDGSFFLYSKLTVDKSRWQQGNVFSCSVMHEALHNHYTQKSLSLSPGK
light: B1 light
B8 returned a Kd with CD-52 peptide 741 [2] of 1.8 nM.

B9: ASGPR receptor subunit H1 (receptor)
chain: QNSQLQEELRGLRETFSNFTASTEAQVKGLSTQGGNVGRKMKSLESQLEKQQKDLSEDHSSLLLHVKQFVSDLRSLSCQMAALQGNGSERTCCPVNWVEHERSCYWFSRSGKAWADADNYCRLEDAHLVVVTSWEEQKFVQHHIGPVNTWMGLHDQNGPWKWVDGTDYETGFKNWRPEQPDDWYGHGLGGGEDCAHFTDDGRWNDDVCQRPYRWVCETELDKASQEPPLL
B9: the koff came out at 0.00107 s⁻¹ in test [3], 0.0515 s⁻¹ with Control enzyme (S4), 0.0387 s⁻¹ in test [4] and 0.000296 s⁻¹ in test [5].
